Measured values: article PMC3792076, “Elucidation of Substrate Specificity in Aspergillus nidulans UDP-Galactose-4-Epimerase” (PLoS ONE, 2013)

Target: UDP-galactose-4-epimerase from Aspergillus nidulans (Aspergillus nidulans)
Assay: crystal structure; microbatch at 277 K, 20% (w/v) PEG3350, 0.1 M Bis-Tris propane pH 7.5, 0.2 M sodium fluoride, grown with 10 mM UDP-glucose; space group C2, three monomers per asymmetric unit (one homodimer and one monomer that forms a dimer through symmetry); 2.8 Å

stoichiometry N: 2
Substance: UDP-galactose-4-epimerase from Aspergillus nidulans (enzyme)
